Results as given in PMC3958310.

Target: DENV1 envelope (E) protein, strain Western Pacific 74, on the virus surface (dengue virus serotype 1, strain Western Pacific 74)

B1: Fab fragment of HMAb 1F4 (Fab, V domains shown)
VH: QVQLVESGGGVVQPGRSLRLSCAASGFTFSAYGMHWVRQAPGKGLEWVAIIWYDGSNKYYADSVKGRFTISRDNSKNTLHLQMNSLRAEDTAIYYCARDKNPGTKPYYHYGMDVWGQGTTVTVSS
VL: QSVLTQPPSVSEAPRQRVTISCSGSSSNIGNNAVNWYQQFPGKAPKLLIYYDDLLPSGVSDRFSGSKSGTSASLAISGLQSEDEAYYYCAAWDDSLIGVVFGGGTKLTVL
Binder B1 has a neutralisation of DENV1 (Western Pacific 74) in U937 cells expressing DC-SIGN, flow cytometry, Neut50 of 0.11 µg/mL.
